Data set [1] concerns the molecule itself. In words: SEC; analytical size-exclusion chromatography, Superdex 200 10/30, Tris-HCl 20 mM pH 7.8, NaCl 100 mM, glycerol 5%, CHAPS 0.01%, DTT 4 mM; column calibrated with marker proteins; number of chains from apparent over theoretical monomer molecular weight. Background: Size exclusion chromatography separates by hydrodynamic size, large species first.
Data set [2] has as its target T1, KCTD1 (full-length, residues 1-257) (human), Q719H9.
T1 chain: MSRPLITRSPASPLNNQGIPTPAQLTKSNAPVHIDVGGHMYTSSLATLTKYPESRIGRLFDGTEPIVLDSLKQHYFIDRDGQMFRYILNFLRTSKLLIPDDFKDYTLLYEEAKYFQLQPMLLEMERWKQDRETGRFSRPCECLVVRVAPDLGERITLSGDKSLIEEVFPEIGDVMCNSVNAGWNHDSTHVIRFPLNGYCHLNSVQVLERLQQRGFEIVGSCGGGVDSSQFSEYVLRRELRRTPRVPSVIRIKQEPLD
The data set is described as above. As to conditions: remark: other sources report otherwise.

B1: KCTD1 C-terminal domain (KCTD1^CTD, residues 134-235) (domain or fragment, human, UniProt Q719H9 134-235, looked up)
chain: GRFSRPCECLVVRVAPDLGERITLSGDKSLIEEVFPEIGDVMCNSVNAGWNHDSTHVIRFPLNGYCHLNSVQVLERLQQRGFEIVGSCGGGVDSSQFSEYVL
notes: KCTD1, C-terminal domain, residues 134-235; The sentences on expression host and on TEV removal of the tag list KCTD1, KCTD1^BTB and the point mutants but not KCTD1^CTD; source: recombinantly expressed (pETM11), purified (Superdex 200)
Usually stoichiometry N stands for a count of units in the complex or per binding partner. Regarding B1, the “stoichiometry N” value in data set [1] is approximately 4.5.

B2: KCTD1 (full-length, residues 1-257), Q719H9 1-257 (natural protein)
chain: MSRPLITRSPASPLNNQGIPTPAQLTKSNAPVHIDVGGHMYTSSLATLTKYPESRIGRLFDGTEPIVLDSLKQHYFIDRDGQMFRYILNFLRTSKLLIPDDFKDYTLLYEEAKYFQLQPMLLEMERWKQDRETGRFSRPCECLVVRVAPDLGERITLSGDKSLIEEVFPEIGDVMCNSVNAGWNHDSTHVIRFPLNGYCHLNSVQVLERLQQRGFEIVGSCGGGVDSSQFSEYVLRRELRRTPRVPSVIRIKQEPLD
In the case of B2, the stoichiometry N in data set [2] worked out at 4.5.

B3: KCTD1^P20S (full-length KCTD1 with the SEN-causing mutation P20S) (natural protein, human, UniProt Q719H9 1-257, looked up)
chain: MSRPLITRSPASPLNNQGISTPAQLTKSNAPVHIDVGGHMYTSSLATLTKYPESRIGRLFDGTEPIVLDSLKQHYFIDRDGQMFRYILNFLRTSKLLIPDDFKDYTLLYEEAKYFQLQPMLLEMERWKQDRETGRFSRPCECLVVRVAPDLGERITLSGDKSLIEEVFPEIGDVMCNSVNAGWNHDSTHVIRFPLNGYCHLNSVQVLERLQQRGFEIVGSCGGGVDSSQFSEYVLRRELRRTPRVPSVIRIKQEPLD
notes: KCTD1, full-length protein, residues 1-257, disease-causing missense variant P20S; the mutation occurs in families with SEN syndrome; also called KCTD^P20S; source: E. coli BL21(DE3), purified (His-trap, TEV digestion, Superdex 200); not shown: polyHis, N-terminal, cleaved
Consider B3, for which the binding result in data set [1] is “binds”.

B4: KCTD1^H74P (full-length KCTD1 with the SEN-causing mutation H74P) (natural protein, human, UniProt Q719H9 1-257, looked up)
chain: MSRPLITRSPASPLNNQGIPTPAQLTKSNAPVHIDVGGHMYTSSLATLTKYPESRIGRLFDGTEPIVLDSLKQPYFIDRDGQMFRYILNFLRTSKLLIPDDFKDYTLLYEEAKYFQLQPMLLEMERWKQDRETGRFSRPCECLVVRVAPDLGERITLSGDKSLIEEVFPEIGDVMCNSVNAGWNHDSTHVIRFPLNGYCHLNSVQVLERLQQRGFEIVGSCGGGVDSSQFSEYVLRRELRRTPRVPSVIRIKQEPLD
notes: KCTD1, full-length protein, residues 1-257, disease-causing missense variant H74P; the mutation occurs in families with SEN syndrome; also called KCTD^H74P; source: E. coli BL21(DE3), purified (His-trap, TEV digestion, Superdex 200); not shown: polyHis, N-terminal, cleaved
For B4, the binding result in data set [1] was “binds”.

B5: KCTD1^G62D (full-length KCTD1 with the SEN-causing mutation G62D) (natural protein, human, UniProt Q719H9 1-257, looked up)
chain: MSRPLITRSPASPLNNQGIPTPAQLTKSNAPVHIDVGGHMYTSSLATLTKYPESRIGRLFDDTEPIVLDSLKQHYFIDRDGQMFRYILNFLRTSKLLIPDDFKDYTLLYEEAKYFQLQPMLLEMERWKQDRETGRFSRPCECLVVRVAPDLGERITLSGDKSLIEEVFPEIGDVMCNSVNAGWNHDSTHVIRFPLNGYCHLNSVQVLERLQQRGFEIVGSCGGGVDSSQFSEYVLRRELRRTPRVPSVIRIKQEPLD
notes: KCTD1, full-length protein, residues 1-257, disease-causing missense variant G62D; the mutation occurs in families with SEN syndrome; One sentence of the modelling section prints Gly62Glu; everywhere else G62D; also called KCTD^G62D; source: E. coli BL21(DE3), purified (His-trap, TEV digestion, Superdex 200); not shown: polyHis, N-terminal, cleaved
In the case of B5, the binding result in data set [1] is given as “binds”.

B6: KCTD1^D69E (full-length KCTD1 with the SEN-causing mutation D69E) (natural protein, human, UniProt Q719H9 1-257, looked up)
chain: MSRPLITRSPASPLNNQGIPTPAQLTKSNAPVHIDVGGHMYTSSLATLTKYPESRIGRLFDGTEPIVLESLKQHYFIDRDGQMFRYILNFLRTSKLLIPDDFKDYTLLYEEAKYFQLQPMLLEMERWKQDRETGRFSRPCECLVVRVAPDLGERITLSGDKSLIEEVFPEIGDVMCNSVNAGWNHDSTHVIRFPLNGYCHLNSVQVLERLQQRGFEIVGSCGGGVDSSQFSEYVLRRELRRTPRVPSVIRIKQEPLD
notes: KCTD1, full-length protein, residues 1-257, disease-causing missense variant D69E; the mutation occurs in families with SEN syndrome; also called KCTD^D69E; source: E. coli BL21(DE3), purified (His-trap, TEV digestion, Superdex 200); not shown: polyHis, N-terminal, cleaved
Turning to B6, the binding result in data set [1] is given as “binds”.

B7: KCTD1^H33P (full-length KCTD1 with the SEN-causing mutation H33P) (natural protein, human, UniProt Q719H9 1-257, looked up)
chain: MSRPLITRSPASPLNNQGIPTPAQLTKSNAPVPIDVGGHMYTSSLATLTKYPESRIGRLFDGTEPIVLDSLKQHYFIDRDGQMFRYILNFLRTSKLLIPDDFKDYTLLYEEAKYFQLQPMLLEMERWKQDRETGRFSRPCECLVVRVAPDLGERITLSGDKSLIEEVFPEIGDVMCNSVNAGWNHDSTHVIRFPLNGYCHLNSVQVLERLQQRGFEIVGSCGGGVDSSQFSEYVLRRELRRTPRVPSVIRIKQEPLD
notes: KCTD1, full-length protein, residues 1-257, disease-causing missense variant H33P; the mutation occurs in families with SEN syndrome; also called KCTD^H33P; source: E. coli BL21(DE3), purified (His-trap, TEV digestion, Superdex 200); not shown: polyHis, N-terminal, cleaved
With B7, the binding result in data set [1] is reported as “binds”.

B8: KCTD1 BTB domain (KCTD1^BTB, residues 1-135) (domain or fragment, human, UniProt Q719H9 1-135, looked up)
chain: MSRPLITRSPASPLNNQGIPTPAQLTKSNAPVHIDVGGHMYTSSLATLTKYPESRIGRLFDGTEPIVLDSLKQHYFIDRDGQMFRYILNFLRTSKLLIPDDFKDYTLLYEEAKYFQLQPMLLEMERWKQDRETGR
notes: KCTD1, pre-BTB region and BTB domain, residues 1-135; source: E. coli BL21(DE3), purified (His-trap, TEV digestion, Superdex 200); not shown: polyHis, N-terminal, cleaved
B8: the “stoichiometry N” value in data set [1] was approximately 4.5.
